Values of other authors in paper PMC6323488.

Molecular target: EGFR (Homo sapiens) (UniProt P00533)

For CTGF (from UniProt P29279), the Kd is given as 126 nM.
